Results from patent US7579186 (Amgen, dated 2009).
Blank lines part the entries; values can stand above or below the binder they belong to.

What was measured:
[1] = molecular target: T1, goat anti-human TβRII polyclonal antibody (R&D); assay: sandwich ELISA: goat anti-human TβRII polyclonal antibody coated, soluble TβRII titrated, detection with the biotin-labeled goat anti-human TβRII polyclonal antibody and streptavidin-β-galactosidase (fluorescence)
T1 construct: Polyclonal reagent; also called anti-human soluble TβRII polyclonal antibody (R&D); commercially available anti-human TβRII polyclonal antibody
Procedure: Establishment of a Quantitative Method with Sandwich ELISA for Human Soluble TβRII <1-1> Establishment of a Sandwich ELISA System to Quantify Soluble Recombinant Human TβRII Goat anti-human TβRII polyclonal antibody (R&D) was diluted with phosphate buffer, and added to each well of a 96-well ELISA microplate (Corning) at a concentration of 0.1 μg/50 μl/well. The plate was incubated at room temperature for one hour to allow adsorption of the polyclonal antibody.
The assay sample was added to each well of the antibody-immobilized microplate (50 μl/well), and the plate was incubated at room temperature for one hour. Then, the microplate was washed three times with phosphate buffer containing 0.1% Tween20. Biotin-labeled goat anti-human TβRII polyclonal antibody (R&D) (diluted with phosphate buffer containing 1% BSA and 0.1% Tween20) was then added to each well at a concentration of 0.025 μg/50 μl/well. The plate was incubated at room temperature for one hour.
A calibration curve was prepared with the sandwich ELISA established in Example <1-1> using commercially available soluble recombinant human TβRII (R&D) as a standard.

[2] = molecular target: T2, purified soluble recombinant human TβRII (extracellular domain of human TGF-β type II receptor, prepared in … (human, UniProt P37173 23-159)); assay: SPR (Biacore X), soluble TβRII immobilised on the chip, antibody injected
T2 construct: The range 1-159 is as printed; also called purified human soluble TβRII; purified soluble human TβRII
Procedure: HBS buffer (containing 0.01 M HEPES, 0.15 M NaCl, 3 mM EDTA, and 0-0.005% Detergent P20, pH 7.0) was injected through a flow cell-1 attached to the kit at a flow rate of 5 μl/min. Then, 35 μl of a solution consisting of 0.005 M NHS (N-hydroxysuccinimide) and 0.2 M EDC (N-ethyl-N'-(dimethylaminopropyl)carbodiimide) was injected to activate the carboxyl groups of the CM coated on the sensor chip.
Then, 70 μl of purified soluble human TβRII (30 μg/ml; dissolved in 10 mM sodium acetate buffer (pH 5.0)) prepared in Example 2 was injected over the chip to be immobilized on the sensor chip.
Phosphate buffer was injected to the flow cell (sensor chip) at a flow rate of 20 μl/minute, and each of the purified human anti-human TGF-β type II receptor monoclonal antibody prepared in the above Example (40 to 100 μg/ml, 60 μl) was added thereto.

[3] = molecular target: T3, rat TβRII expressed on the cell surface of rat kidney-derived fibroblast cell line NRK-49F (rat, UniProt P38438 24-567); assay: flow cytometry on rat kidney-derived fibroblast cell line NRK-49F, antibody at 5 µg/ml, biotin-labeled anti-human immunoglobulin (Fc) antibody and streptavidin-PE [f]
T3 construct: whole, on cells
T3 sequence (looked up): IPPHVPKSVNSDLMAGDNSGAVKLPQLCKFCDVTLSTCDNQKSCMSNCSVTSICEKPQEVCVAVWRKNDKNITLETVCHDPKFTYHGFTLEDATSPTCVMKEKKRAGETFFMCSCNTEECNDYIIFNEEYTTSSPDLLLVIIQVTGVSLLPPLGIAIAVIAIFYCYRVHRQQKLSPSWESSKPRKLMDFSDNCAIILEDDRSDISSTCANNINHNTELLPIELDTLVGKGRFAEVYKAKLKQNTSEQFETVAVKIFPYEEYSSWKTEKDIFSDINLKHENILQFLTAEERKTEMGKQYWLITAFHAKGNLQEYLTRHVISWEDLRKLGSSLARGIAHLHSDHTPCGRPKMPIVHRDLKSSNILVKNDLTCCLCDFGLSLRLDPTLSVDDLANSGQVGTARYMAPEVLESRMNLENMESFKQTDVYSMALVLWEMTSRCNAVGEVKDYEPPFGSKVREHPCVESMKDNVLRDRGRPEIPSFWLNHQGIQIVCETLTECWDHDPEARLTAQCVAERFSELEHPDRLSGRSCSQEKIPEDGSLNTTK
Procedure: (§1) Further, similarly, the reactivity against rat TβRII of each of the various human anti-human TβRII monoclonal antibodies was analyzed by cell staining (by flow cytometry) using rat kidney-derived fibroblast cell line NRK-49F (ATCC CRL-1570) expressing rat TβRII on cell surface.
(§2) Each of the human anti-human TβRII monoclonal antibodies of the present invention or commercially available goat anti-human TβRII polyclonal antibody (R&D) (300 μl, 5 μg/ml) (diluted with phosphate buffer containing 0.1% BSA) was added to the respective cells (1 to 2 ×10^4 cells). The mixtures were incubated at 4° C. for one hour, and then centrifuged (at 1,500 rpm for three minutes). The supernatants were discarded, and the cells were washed twice with phosphate buffer. The biotin-labeled anti-human immunoglobulin (Fc) antibody (200 μl; American Qualex International Inc.) was added to the samples containing the human antibodies. The biotin-labeled anti-goat immunoglobulin antibody (200 μl; Amersham Pharmacia) was added to the samples containing the goat antibody. The samples were incubated at 4° C. for one hour.
(§3) Then, each sample was centrifuged (at 1,500 rpm for three minutes), and the supernatant was discarded. […] The samples were fluorescently analyzed with FACStar fluorescence-activated cell sorter (Becton Dickinson) (fluorescence wavelength: a DF585/42 filter, excitation wavelength: 488 nm).

[4] = molecular target: T3, rat TβRII expressed on the cell surface …; assay: flow cytometry on rat kidney-derived fibroblast cell line NRK-49F, antibody at 5 µg/ml, biotin-labeled anti-human immunoglobulin (Fc) antibody and streptavidin-PE [d]
Procedure: as §1, §2, §3

- EC50 (read off the curve) [1]: ~2 ng/mL
B1: commercially available soluble recombinant human TβRII (R&D) (receptor, UniProt P37173 23-159, looked up)
chain: TIPPHVQKSVNNDMIVTDNNGAVKFPQLCKFCDVRFSTCDNQKSCMSNCSITSICEKPQEVCVAVWRKNDENITLETVCHDPKLPYHDFILEDAASPKCIMKEKKKPGETFFMCSCSSDECNDNIIFSEEYNTSNPD
notes: Bought product; also called standard substance

- Kd [2]: 3.4 nM
- koff [2]: 0.00012 s⁻¹
- binding result [3]: binds
B2: human anti-human TβRII monoclonal antibody TR4D455 (antibody, human IgG4, V domains shown)
VH: EVQLVQSGAEVKKPGESLKISCKGSGYSFTSYWIGWVRQMPGKGLEWMGIIYPGDSDTRYSPSFQGQVTISADKSISTAYLQWSSLKASDTAMYYCARVGGCSGGSCYLWGQGNLVTVSS
VL: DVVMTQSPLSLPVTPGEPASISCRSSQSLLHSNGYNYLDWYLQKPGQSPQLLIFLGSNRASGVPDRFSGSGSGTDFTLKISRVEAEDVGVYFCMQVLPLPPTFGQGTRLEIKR
notes: Human IgG4/kappa purified from hybridoma supernatant; VH gene 5-51 (DP-73), VL gene A19 (DPK-15); The stated signal residues must be removed from the entries; also called Clone TR4D455

- Kd [2]: 51 nM
- koff [2]: 0.014 s⁻¹
- binding result [4]: binds
B3: human anti-human TβRII monoclonal antibody TR4C175 (antibody, V domains shown)
VH: EVQLVESGGGLVKPGGSLRLSCAASGFTFSSFSMNWVRQAPGKGLEWVSSISSSSSYIYYTDSVKGRFTISRDNAKNSLYLQMNSLRAEDTAVYYCARGYWGFDYWGQGTLVTVSS
VL: DIQMTQSPSSLSASVGDRVTITCRASQGIRNDLGWYQQKPGKAPKRLIYAASSLQSGVPSRFSGSASGTEFTLTISSLQPEDFATYYCLQHNSNPLTFGGGTKVEIKR
notes: Human IgG4/kappa purified from hybridoma supernatant (transgenic mouse); VH gene 3-21 (DP-77), VL gene A30; The stated signal residues must be removed from the entries; also called Clone TR4C175; TRC175
